Measured values taken from paper doi:10.1101/2023.01.17.524225 (bioRxiv, 2023).
Primed or numbered codes have the meaning given here. No end group written: not given here. FITC′ = not defined here

Target: T1, GID4 (aa 116-300) (human, UniProt Q8IVV7 116-300)
T1 sequence: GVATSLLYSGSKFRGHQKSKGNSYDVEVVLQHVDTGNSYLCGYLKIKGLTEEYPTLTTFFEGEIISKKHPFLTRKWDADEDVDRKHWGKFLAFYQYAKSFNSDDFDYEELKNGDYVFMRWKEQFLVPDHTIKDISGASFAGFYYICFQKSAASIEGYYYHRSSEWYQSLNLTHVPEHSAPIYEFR
Test: fluorescence polarisation

B1: C-terminally FITC-labelled PGLWKS peptide (peptide)
peptide: PGLWKS-{FITC′}
binding result: binds
